# Measurements published in patent US9757468B2, “Intranasal administration of guanidinylated aminoglycosides” (The Regents of the University of California, priority 2013, dated 2017).
# Where two headings read alike, the source gives them in different places.
# What was measured:
# [1] = tested on: sulfamidase deficient mice (Sgsh−/−); test: Brain enzyme activity one hour after intranasal administration of sulfamidase forms; conditions: 2 mg/kg, FIG. 4
# [2] = tested on: sulfamidase deficient mice (Sgsh−/−); conditions: mouse, in vivo, 2 mg/kg
# brain = conditions: in vivo; cited from earlier work
# [3] = tested on: α-iduronidase-deficient mice (Idua−/−; Homozygote); test: Brain enzyme activity one hour after intranasal administration of forms of iduronidase; conditions: 2 mg/kg, FIG. 1
# [4] = tested on: mouse model of mucopolysaccharidosis (MPS) type I; test: Reduction of brain glycosaminoglycans by intranasal treatment (carbazole assay); format: in vivo; conditions: intranasal 1 mg/kg every other day for two weeks, MPS I mice, *p<0.05, FIG. 3
# Description: A mouse model of mucopolysaccharidosis (MPS) type I, which is null for the lysosomal enzyme, α-L-iduronidase (IDUA), was used to measure the amount of glycosaminoglycans in the brain following intranasal administration of 1 mg/kg IDUA or GNeo-AP-IDUA every other day for two weeks. Quantification of glycoaminoglycan was performed using the carbazole assay. […] Data are represented as mean±SD (n=5 or 6). One-way analysis of variance (ANOVA) with Tukey's post-hoc analysis for comparison was applied for data analysis (*p<0.05).
# [5] = tested on: α-iduronidase-deficient mice (Idua−/−; Homozygote); conditions: mouse, in vivo, 2 mg/kg
# [6] = tested on: α-iduronidase-deficient mice (Idua−/−; Homozygote); conditions: mouse, in vivo
# Description: One hour following administration the mice were sacrificed and their brains were removed and dissected to isolate tissue from the olfactory bulb, the cerebral cortex, and “other parts of the brain.” The total amount of tissue protein recovered from these various portions was ˜1 mg, ˜25 mg, and ˜50 mg, respectively. The various tissues were then assayed for IDUA activity, which was expressed relative to the wet weight of each part of brain.
molecule,measurement,setting,value
"GNeo-SGSH: Sulfamidase (SGSH) conjugated to guanidinoneomycin (conjugate, UniProt P51688 21-502, looked up, guanidinoneomycin conjugate) N-sulphoglucosamine …: RPRNALLLLADDGGFESGAYNNSAIATPHLDALARRSLLFRNAFTSVSSCSPSRASLLTGLPQHQNGMYGLHQDVHHFNSFDKVRSLPLLLSQAGVRTGIIGKKHVGPETVYPFDFAYTEENGSVLQVGRNITRIKLLVRKFLQTQDDRPFFLYVAFHDPHRCGHSQPQYGTFCEKFGNGESGMGRIPDWTPQAYDPLDVLVPYFVPNTPAARADLAAQYTTVGRMDQGVGLVLQELRDAGVLNDTLVIFTSDNGIPFPSGRTNLYWPGTAEPLLVSSPEHPKRWGQVSEAYVSLLDLTPTILDWFSIPYPSYAIFGSKTIHLTGRSLLPALEAEPLWATVFGSQSHHEVTMSYPMRSVQHRHFRLVHNLNFKMPFPIDQDFYVSPTFQDLLNRTTAGQPTGWYKDLRHYYYRARWELYDRSRDPHETQNLATDPRFAQLLEMLRDQLAKWQWETHDPWVCAPDGVLEEKLSPQCQPLHNEL",enzyme activity in brain extracts (uptake into the brain),[1]; one hour after administration,rapid uptake into the brain
same,level of activity in the olfactory bulb of brain versus wildtype animals,[1]; one hour,exceeded that found in wildtype animals
"SGSH: Sulfamidase with mannose-6-phosphate terminated glycans, not conjugated to guanidinoneomycin (protein, UniProt P51688 21-502, looked up) N-sulphoglucosamine …: RPRNALLLLADDGGFESGAYNNSAIATPHLDALARRSLLFRNAFTSVSSCSPSRASLLTGLPQHQNGMYGLHQDVHHFNSFDKVRSLPLLLSQAGVRTGIIGKKHVGPETVYPFDFAYTEENGSVLQVGRNITRIKLLVRKFLQTQDDRPFFLYVAFHDPHRCGHSQPQYGTFCEKFGNGESGMGRIPDWTPQAYDPLDVLVPYFVPNTPAARADLAAQYTTVGRMDQGVGLVLQELRDAGVLNDTLVIFTSDNGIPFPSGRTNLYWPGTAEPLLVSSPEHPKRWGQVSEAYVSLLDLTPTILDWFSIPYPSYAIFGSKTIHLTGRSLLPALEAEPLWATVFGSQSHHEVTMSYPMRSVQHRHFRLVHNLNFKMPFPIDQDFYVSPTFQDLLNRTTAGQPTGWYKDLRHYYYRARWELYDRSRDPHETQNLATDPRFAQLLEMLRDQLAKWQWETHDPWVCAPDGVLEEKLSPQCQPLHNEL",enzyme activity in brain extracts (uptake into the brain),[2],not taken up efficiently
"IDUA: recombinant enzyme iduronidase (Aldurazyme), not conjugated to guanidinoneomycin (protein, UniProt P35475 28-653, looked up) Alpha-L-iduronidase: APHLVHVDAARALWPLRRFWRSTGFCPPLPHSQADQYVLSWDQQLNLAYVGAVPHRGIKQVRTHWLLELVTTRGSTGRGLSYNFTHLDGYLDLLRENQLLPGFELMGSASGHFTDFEDKQQVFEWKDLVSSLARRYIGRYGLAHVSKWNFETWNEPDHHDFDNVSMTMQGFLNYYDACSEGLRAASPALRLGGPGDSFHTPPRSPLSWGLLRHCHDGTNFFTGEAGVRLDYISLHRKGARSSISILEQEKVVAQQIRQLFPKFADTPIYNDEADPLVGWSLPQPWRADVTYAAMVVKVIAQHQNLLLANTTSAFPYALLSNDNAFLSYHPHPFAQRTLTARFQVNNTRPPHVQLLRKPVLTAMGLLALLDEEQLWAEVSQAGTVLDSNHTVGVLASAHRPQGPADAWRAAVLIYASDDTRAHPNRSVAVTLRLRGVPPGPGLVYVTRYLDNGLCSPDGEWRRLGRPVFPTAEQFRRMRAAEDPVAAAPRPLPAGGRLTLRPALRLPSLLLVHVCARPEKPPGQVTRLRALPLTQGQLVLVWSDEHVGSKCLWTYEIQFSQDGKAYTPVSRKPSTFNLFVFSPDTGAVSGSYRVRALDYWARPGPFSDPVPYLEVPVPRGPPSPGNP",levels of enzyme in the brain after intranasal delivery,brain,extremely low
same,enzyme activity in brain extracts (uptake into the brain),[3],not taken up efficiently
"AP-IDUA: iduronidase modified with alkaline phosphatase only, not conjugated to GNeo (protein, UniProt P35475 28-653, looked up, alkaline phosphatase modified) Alpha-L-iduronidase: APHLVHVDAARALWPLRRFWRSTGFCPPLPHSQADQYVLSWDQQLNLAYVGAVPHRGIKQVRTHWLLELVTTRGSTGRGLSYNFTHLDGYLDLLRENQLLPGFELMGSASGHFTDFEDKQQVFEWKDLVSSLARRYIGRYGLAHVSKWNFETWNEPDHHDFDNVSMTMQGFLNYYDACSEGLRAASPALRLGGPGDSFHTPPRSPLSWGLLRHCHDGTNFFTGEAGVRLDYISLHRKGARSSISILEQEKVVAQQIRQLFPKFADTPIYNDEADPLVGWSLPQPWRADVTYAAMVVKVIAQHQNLLLANTTSAFPYALLSNDNAFLSYHPHPFAQRTLTARFQVNNTRPPHVQLLRKPVLTAMGLLALLDEEQLWAEVSQAGTVLDSNHTVGVLASAHRPQGPADAWRAAVLIYASDDTRAHPNRSVAVTLRLRGVPPGPGLVYVTRYLDNGLCSPDGEWRRLGRPVFPTAEQFRRMRAAEDPVAAAPRPLPAGGRLTLRPALRLPSLLLVHVCARPEKPPGQVTRLRALPLTQGQLVLVWSDEHVGSKCLWTYEIQFSQDGKAYTPVSRKPSTFNLFVFSPDTGAVSGSYRVRALDYWARPGPFSDPVPYLEVPVPRGPPSPGNP",enzyme activity in brain extracts (uptake into the brain),[3],does not appear to facilitate efficient transport into the brain
"GNeo-AP-IDUA: iduronidase (Aldurazyme) treated with alkaline phosphatase to remove mannose-6-phosphate groups, then conjugated to guanidinoneomycin via GNeo-NHS (conjugate, UniProt P35475 28-653, looked up, guanidinoneomycin conjugate; alkaline phosphatase modified) Alpha-L-iduronidase: APHLVHVDAARALWPLRRFWRSTGFCPPLPHSQADQYVLSWDQQLNLAYVGAVPHRGIKQVRTHWLLELVTTRGSTGRGLSYNFTHLDGYLDLLRENQLLPGFELMGSASGHFTDFEDKQQVFEWKDLVSSLARRYIGRYGLAHVSKWNFETWNEPDHHDFDNVSMTMQGFLNYYDACSEGLRAASPALRLGGPGDSFHTPPRSPLSWGLLRHCHDGTNFFTGEAGVRLDYISLHRKGARSSISILEQEKVVAQQIRQLFPKFADTPIYNDEADPLVGWSLPQPWRADVTYAAMVVKVIAQHQNLLLANTTSAFPYALLSNDNAFLSYHPHPFAQRTLTARFQVNNTRPPHVQLLRKPVLTAMGLLALLDEEQLWAEVSQAGTVLDSNHTVGVLASAHRPQGPADAWRAAVLIYASDDTRAHPNRSVAVTLRLRGVPPGPGLVYVTRYLDNGLCSPDGEWRRLGRPVFPTAEQFRRMRAAEDPVAAAPRPLPAGGRLTLRPALRLPSLLLVHVCARPEKPPGQVTRLRALPLTQGQLVLVWSDEHVGSKCLWTYEIQFSQDGKAYTPVSRKPSTFNLFVFSPDTGAVSGSYRVRALDYWARPGPFSDPVPYLEVPVPRGPPSPGNP",total GAG level in the mouse brain compared with untreated mouse brains,[4],significantly decreased
same,enzyme activity in brain extracts (uptake into the brain),[5],significantly more enzymatic activity
same,dose at which uptake into the olfactory bulb (OB) and cerebral cortex (CC) saturated,[6],~1 mg/kg
same,"enzyme concentration in the OB versus the CC, based on enzyme specific activity (nmols/hr/mg of tissue protein)",[6],much greater than in the CC
same,share of the administered dose in Other parts of the Brain,[6],~64%
same,share of the administered dose in the CC,[6],~23%
same,share of the administered dose in the OB,[6],~13%
